From the supplement of paper PMC7877785
± gives the uncertainty stated by the source.

Assay: self-splicing fitness, log relative to wild type (ln ratio); higher = more splicing; Tetrahymena group I intron in knt gene, E. coli kanamycin selection, DiMSum; sequences stand for … in CUCUCU…GGAGGGAAAAGUUAUCAGGCAUGCACCUGGUAGCUAGUCUUUAAACCAAUAGAUUGCAUCGGUUUAAAAGGCAAGACCGUCAAAUUGCGGGAAAGGGGUCAACAGCCGUUCAGUACCAAGUCUCAGGGGAAACUUUGAGAUGGCCUUGCAAAGGGUAUGGUAAUAAGCUGACGGACAUGGUCCUAACCACGCAGCCAAGUCCUAAGUCAACAGAUCUUCUGUUGAUAUGGAUGCAGUUCACAGACUAAAUGUCGGUCGGGGAAGAUGUAUUCUUCUCAUAAGAUAUAGUCGGACCUCUCCUUAAUGGGAGCUAGCGGAUGAAGUGAUGCAACACUGGAGCCGCUGGGAACUAAUUUGUAUGCGAAAGUAUAUUGAUUAGUUUUGGAGUACUCGUGGUCG
Method in brief: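 Pooled colonies went to amplicon sequencing on an Illumina HiSeq 2500 after six replicate transformations. The plates were LB agar with 100 μg/mL carbenicillin, 50 μM IPTG and 0.2% rhamnose, with or without 25 μg/mL kanamycin, incubated overnight at 37°C or 30°C. The E. coli BL21(DE3) library had all eight P1ex-region intron nucleotides randomised, the intron placed in the knt kanamycin-resistance gene on pET-22b(+). DiMSum fitness is the error-weighted combination of replicate fold changes, kanamycin against none, normalised to wild type.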

Sequence | self-splicing fitness (ln) (30 °C) | self-splicing fitness (ln) (37 °C)
UGAAAGCAAUAUUACGGUCC | -0.844 ± 0.072 | -0.196 ± 0.095
UGAAAGCAAUAUUACGUAAC |  | -1.29 ± 0.25
UGAAAGCAAUAUUACGUAAU | -3.71 ± 0.14 | -0.793 ± 0.11
UGAAAGCAAUAUUACGUCCG | 0.111 ± 0.1 | 0.472 ± 0.14
UGAAAGCAAUAUUACGUGGA | -2.89 ± 0.15 | -2.69 ± 0.18
UGAAAGCAAUAUUACGUGGC | -3.37 ± 0.17 | -2.73 ± 0.25
UGACAGCAAUAUUACGAACU | -0.592 ± 0.14 | 0.0955 ± 0.17
UGACAGCAAUAUUACGAAUC | -3.49 ± 0.37 | -1.68 ± 0.31
UGACAGCAAUAUUACGACCU | -1.09 ± 0.11 | 0.0765 ± 0.14
UGACAGCAAUAUUACGACUC | -2.23 ± 0.17 | -0.483 ± 0.17
UGACAGCAAUAUUACGAGAC | -3.79 ± 0.49 | -2.72 ± 0.46
UGACAGCAAUAUUACGAGGC | -2.35 ± 0.23 | -2.95 ± 0.43
UGACAGCAAUAUUACGAUCA | -0.329 ± 0.068 | 0.116 ± 0.089
UGACAGCAAUAUUACGCAAA | -2.27 ± 0.18 | -1.73 ± 0.2
UGACAGCAAUAUUACGCAAC | -2.25 ± 0.29 | -1.24 ± 0.25
UGACAGCAAUAUUACGCCGC | -1.26 ± 0.32 | 
UGACAGCAAUAUUACGCGAU | -2.5 ± 0.15 | -1.46 ± 0.19
UGACAGCAAUAUUACGCGGA | -1.75 ± 0.12 | -1 ± 0.097
UGACAGCAAUAUUACGGCUG | -2.28 ± 0.18 | -0.623 ± 0.15
UGACAGCAAUAUUACGGGUU | -4.59 ± 0.41 | -2.79 ± 0.2

Sequence | self-splicing fitness (ln) (30 °C) | self-splicing fitness (ln) (37 °C)
UGACAGCAAUAUUACGGUAG | -0.921 ± 0.067 | -0.41 ± 0.074
UGACAGCAAUAUUACGGUGU | -4.28 ± 0.23 | -2.52 ± 0.19
UGACAGCAAUAUUACGUCAU | -3.99 ± 0.27 | -2.48 ± 0.18
UGACAGCAAUAUUACGUCGU | -1.56 ± 0.15 | -3.25 ± 0.24
UGACAGCAAUAUUACGUCUU | -0.839 ± 0.049 | -0.539 ± 0.07
UGACAGCAAUAUUACGUGAA | -1.94 ± 0.076 | -0.332 ± 0.094
UGACAGCAAUAUUACGUGAU | -3.05 ± 0.11 | -0.351 ± 0.084
UGACAGCAAUAUUACGUGGC | -4.11 ± 0.28 | -3.11 ± 0.37
UGAGAGCAAUAUUACGAAGA | -1.45 ± 0.29 | -2.35 ± 0.42
UGAGAGCAAUAUUACGAGUA | -2.37 ± 0.49 | -2.16 ± 0.46
UGAGAGCAAUAUUACGAGUU | -3.31 ± 0.23 | -2.3 ± 0.34
UGAGAGCAAUAUUACGAUCA | -1.62 ± 0.22 | -1.1 ± 0.25
UGAGAGCAAUAUUACGCACA | -2.08 ± 0.3 | -0.659 ± 0.35
UGAGAGCAAUAUUACGCCCG | -3.12 ± 0.3 | -0.718 ± 0.21
UGAGAGCAAUAUUACGCGGU |  | -0.929 ± 0.39
UGAGAGCAAUAUUACGUACG | -2.03 ± 0.13 | -1.59 ± 0.22
UGAGAGCAAUAUUACGUCAG |  | -3.02 ± 0.31
UGAGAGCAAUAUUACGUCAU | -1.71 ± 0.26 | 
UGAGAGCAAUAUUACGUCGU | -2.38 ± 0.2 | -2.64 ± 0.36
UGAUAGCAAUAUUACGAACU | -1.03 ± 0.12 | 0.402 ± 0.11
